Biological target: T1, GST-tagged yeast Sin3 PAH2 protein (residues 402-473) (S. cerevisiae, UniProt P22579 402-473)
T1 sequence (looked up): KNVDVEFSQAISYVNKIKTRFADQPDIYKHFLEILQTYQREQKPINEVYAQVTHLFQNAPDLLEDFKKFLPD
Assay: fluorescence polarisation

- IC50: 53.3 ± 2.4 µM
- Ki: 11.4 µM
Binder: LDDDLGTAAAVLSNMR (peptide, UniProt P39001 516-531, looked up) [unlabeled Ume6 SID peptide (Ume6 residues 516-531)]

From publication doi:10.1101/2022.12.07.519454 (bioRxiv, 2022)
